Experimental findings from publication PMC6771821, “Cryo‐EM structure of the MinCD copolymeric filament from Pseudomonas aeruginosa at 3.1 Å resolution” (Febs Letters, 2019) are described below.

The data set deals with the molecule itself. The experiment in a line: cryo-EM structure; unsupported MinCD filaments in solution; MinC and MinD each 0.5 mg/mL combined in equal proportion in 20 mM HEPES-Na, 100 mM potassium acetate, 5 mM magnesium acetate, pH 7.0; 1 mM ATP, 15 min at room temperature; helical reconstruction.

B1: MinC from Pseudomonas aeruginosa, full-length, His6-tagged (natural protein, UniProt Q9HYZ7 1-263, looked up)
chain: MSQADLLDQDPVFQLKGSMLAVTILELAHNDLARLERQLADKVAQAPNFFRDTPLVMALDKLPEGEGRLDLPALLEVCRRHGLRTLAIRAGREEDIAAAQALDLPVLPPSGARERPLDIKDSAPRKPAEEPSPSAGEARPEPAKAEEKPAEPVSRPTKVVKTPVRGGMQIYAAGGDLIVLAAVSPGAELLADGNIHVYGPMRGRALAGVKGDATARIFCQQLAAELVSIAGNYKVAEDLRRSPQWGKAVHVSLSGDVLNITRL
notes: MinC (septum site-determining protein), Pseudomonas aeruginosa, residues 1-263, cloned into pET-15b; only residues 156-261 (MinC^C) are modelled in the cryo-EM map; the tag was not removed; also called MinC2 (dimer); source: E. coli C41(DE3), purified (HisTrap HP, dialysis); not shown: His6, N-terminal, kept
On to B1, for which the binding result is recorded as “binds”.
